Laboratory results taken from patent publication US12708677B2, “Contrast agents, methods for preparing contrast agents, and methods of imaging” (Georgia State University Research Foundation, Inc., priority 2008, dated 2026).

Legend:
[1] = Zn^2+ binding affinity, dye competition assay (FluoZin)
Description: FIG. 1.6: Measurement of metal binding constants. Gd^3+ binding affinity (FIG. 1.6a) and Zn^2+ binding affinity (FIG. 1.6b) of CA1.CD2 measured by dye competition assays. CA1.CD2 stock solution was gradually added into the 1:1 dye-metal complex to compete for the dye-bound metal ions. The insets show the titration curve for the dye indicators fluo 5N (FIG. 1.6a) and FluoZin (FIG. 1.6b), respectively. (FIG. 1.6c) La^3+ binding affinity obtained by Aromatic residue sensitized Tb^3+ luminescence energy transfer. The Tb^3+ fluorescence of a protein-Tb^3+ mixture decreases with the addition of La^3+. The La^3+ concentrations are 0, 0.30, 0.76, 5.95, 11.03, and 28.95 μM from top to bottom. The Tb^3+ fluorescence decrease competition was fitted (line) by a normal competition plus a nonspecific quenching effect (inset).
(§1) Since metal selectivity for Gd^3+ over other physiological metal ions is for minimizing the toxicity of the agents,^39, 40 we measured metal binding constants using dye-competition assays with various chelate-metal buffer systems (Table 1). Low limit metal binding affinities of the proteins were also estimated based on Tb^3+-sensitized FRET and competition assays. […] This is considered for in vivo applications of the contrast agent as the phosphate concentration in serum is maintained at ~1.3 mM.^6, 9 The stability of a contrast agent in blood circulation is another factor for in vivo applications. We characterized the stability by incubating Gd-CA1.CD2 with 75% human serum at 37° C. for 3 and 6 hours.
(§2) Metal binding affinity for Ca^2+ and Zn^2+ were determined using similar competition methods and specific dyes with proper Kd values.

[2] = Ca^2+ binding constant, dye competition / Tb^3+ FRET competition
Description: as §1, §2

[3] = Mg^2+ binding constant, competition assays
Description: as §1

[4] = Dynamic NMR, rotational correlation time and S^2 order; format: physicochemical
Experimental: Therefore, the measured correlation time of the protein directly reflects the τR of the metal binding site. In contrast, the flexible metal binding loop in CA9.CD2 has an S^2 order value of 0.3-0.4, which is very different from CA1.CD2 with an S^2 value very close to that of the backbone of the protein.
Pulse field diffusion NMR was applied to measure the hydrodynamic radii of the protein (Lee et al., BBA 2003) with Protein samples CA1.CD2 and its variants of 0.2 mM in buffer, Lysozme and diaxone were used as an external and internal reference for calibration. The correlation size of the protein was measured using TauC pulse sequence developed by the Prestegard lab at UGA using ^15N labeled protein.

[5] = In vitro r1 and r2 proton relaxivity; format: physicochemical
Experimental: Determination of r1 and r2 Relaxivity Values, Relaxation times, T1 and T2, were determined at 1.5, 3, 9.4 Tesla using a Siemens whole-body MR system (1.5, 3T) or a Bruker MRI scanner (9.4T). T1 was determined using inversion recovery and T2 using a multi-echo Carr-Purcell-Meiboom-Gill (CPMG) sequence. The contrast agent samples (200 μl) with different concentrations were placed in eppendorf tubes. The tubes were placed on a tube rack, which was placed in MRI scanners for the measurement of relaxation times r1 and r2 were calculated based on r1(mM^−1 S^−1)=(1/T1s−1/T1c)/C and r2(mM^−1 S^−1)=(1/T2s−1/T2c)/C, where T1s and T2s are relaxation times with contrast agent and T1c and T2c are relaxation times without contrast agent. C is the concentration of contrast agent in mM (the measured Gd^3+ concentrations by ICP-MS). […]

[6] = test system: CD-1 mice; assay: Mouse MR imaging; format: in vivo
Experimental: (§3) Mouse MR Imaging. Care of experimental animals was in accordance with institutional guidelines. CD-1 mice (25-30 g, four mice were imaged) were anesthetized with an isoflurane gas mixture. The anesthetized animal was positioned and stabilized with soft-supporting material (e.g., foam) in the scanner in the coil cradle and was kept warm during the MRI scan. The mice were scanned prior to the administration of any contrast agent (pre-contrast). Approximately 50 μl of Gd-CA1.CD2 (~1.2 mM) or Gd-DTPA (~300 mM) were injected into the animal via the tail vein. MR images were collected at different times (indicated). For T1 weighted imaging at 3T, spin echo sequence with TE/TR=15 ms/500 ms was employed. Rectangular Field of View (FOV) at 100/40 mm, an acquisition matrix of 196^2 and 1.1 mm slice thickness without gap were used. Images were collected from both transverse and coronal sections. The in-plane resolution of images was less than 0.5 mm after they were reconstructed to the matrix of 196^2. For T2 weighted imaging at 9.4T, MR images were recorded using a multi-echo Carr-Purcell-Meiboom-Gill (CPMG) sequence. The data were collected and processed by Dicomworks software. The MR signal intensity in several organs was ascertained by the average intensity in ROIs or points within the organs. Signal intensity for each organ was normalized to that of the leg muscle.
as §3, with “Care” for “Mouse MR Imaging. Care”, “(e.g.” for “(e.g.,”

Row | Molecule | Metal binding constant (Log Ka) Zn^2+ [1] | disassociation constant (Kd) for Zn^2+ [1] [mM] | Log (KGd/KZn) ([1]; metal selectivity) | Metal binding constant (Log Ka) Ca^2+ [2] | disassociation constant (Kd) for Ca^2+ [2] [mM] | Log (KGd/KCa) ([2]; metal selectivity) | Metal binding constant (Log Ka) Mg^2+ [3] | disassociation constant (Kd) for Mg^2+ [3] [mM] | Log (KGd/KMg) ([3]; metal selectivity) | overall correlation time ([4]; absence of bound metal ions) [ns] | overall correlation time ([4]; presence of bound metal ions) [ns] | r1 relative to Gd-DTPA ([5]; 1.5T) | r1 ([5]; B0 1.5 T) | r1 ([5]; B0 1.5 T, listed as CA1) [mM⁻¹ s⁻¹] | r1 ([5]; B0 3 T) [mM⁻¹ s⁻¹] | r1 ([5]; B0 9.4 T) [mM⁻¹ s⁻¹] | MRI contrast enhancement, T1 weighted spin echo ([6]; 3T, ~2.4 μmole Gd/kg via tail vein) | T2 contrast enhancement ([6]; 9.4T) | T1 contrast enhancement in the kidney cortex ([6]; 18 hours after administration) | duration of contrast enhancement at multiple organs ([6]; mouse, in vivo) [h]
1 | CA1.CD2: designed Gd^3+-binding protein, domain 1 of rat CD2 with ligand residues Glu15, Glu56, Asp58, Asp62, Asp64 (protein) RDSGTVWGALGHGIELNIPNFQMTDDIDEVRWERGSTLVAEFKRKMKPFLKSGAFEIDANGDLDIKNLTRDDSGTYNVTVYSTNGTRILNKALDLRILE | 6.72 | 0.00019 | 5.34 | <2.22 | ≥ 6 | >9.84 | <2.0 | > 10 | >10.06 | 9.20 | 9.08 |  |  |  |  |  |  |  |  | 
2 | Gd-CA1.CD2: CA1.CD2 in complex with Gd^3+ (protein) RDSGTVWGALGHGIELNIPNFQMTDDIDEVRWERGSTLVAEFKRKMKPFLKSGAFEIDANGDLDIKNLTRDDSGTYNVTVYSTNGTRILNKALDLRILE |  |  |  |  |  |  |  |  |  |  |  | about 20 fold | up to 117 mM^−1 s^−1 | 117 | 48 | 6 | greatest enhancement of the MRI contrast observed in the kidney | strong T2 contrast enhancement | diminished substantially | 4 to 7
